According to paper PMC3683929:

Key:
MBP-hnRNP A1 [1] = biological target: T1, MBP-hnRNP A1 (mouse, UniProt P49312 1-320); test: EMSA
MBP-hnRNP A1 [2] = biological target: T1, MBP-hnRNP A1; test: fluorescence polarization
MBP-hnRNP A1 [3] = biological target: T1, MBP-hnRNP A1; test: FP/EMSA

T1 sequence (P49312 whole entry): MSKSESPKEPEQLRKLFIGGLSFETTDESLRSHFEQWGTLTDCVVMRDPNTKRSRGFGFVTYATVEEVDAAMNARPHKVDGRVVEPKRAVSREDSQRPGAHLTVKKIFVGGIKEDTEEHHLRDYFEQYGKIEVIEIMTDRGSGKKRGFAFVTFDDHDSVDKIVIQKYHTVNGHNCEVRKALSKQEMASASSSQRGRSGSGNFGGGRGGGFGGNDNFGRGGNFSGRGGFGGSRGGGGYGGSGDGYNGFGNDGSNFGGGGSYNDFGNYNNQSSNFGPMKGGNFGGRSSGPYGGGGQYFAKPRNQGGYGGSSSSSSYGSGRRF

Row | Binder | Kd (MBP-hnRNP A1 [1]) | Kd (MBP-hnRNP A1 [2]) | binding result (MBP-hnRNP A1 [1]) | binding result (MBP-hnRNP A1 [3])
1 | AGGUAGGUUC (ssRNA) [Mag 10 nt wt (-2 to 8)] | 145 ± 12 nM | – | – | –
2 | GGAGGUAGGUAACGG (structured_RNA) [Mag 15 nt A7A8 (A8A9 in Table 1)] | 106 ± 23 nM | 21 ± 4 nM | – | –
3 | AGGUAAGUUC (ssRNA) [Mag 10 nt G4A] | – | – | no binding | –
4 | GAGCCCCAGGAGGUAGGUUCCGGGGGCCU (structured_RNA) [Mag exon 12 5'ss rat wt 29 nt (-12 to 17)] | – | – | – | no binding
5 | GGAGGUAGGUGGCGG (structured_RNA) [Mag 15 nt G7G8 (G8G9 in Table 1)] | 70 ± 21 nM | 60 ± 18 nM | – | –
6 | GGAGGUAGGUUUCGG (structured_RNA) [Mag 15 nt U7U8 (U8U9 in Table 1)] | 171 ± 48 nM | 92 ± 37 nM | – | –
